The results in this text go back to paper PMC10003956, “To the Understanding of Catalysis by D-Amino Acid Transaminases: A Case Study of the Enzyme from Aminobacterium colombiense” (Molecules, 2023).

As usually defined, the Km is the concentration of substrate that gives half-maximal velocity. By kcat is commonly meant the maximal rate divided by the concentration of active sites. One may read the kcat/Km as the turnover number divided by the Michaelis constant.

Substrate in series [1]: N[C@H](CCC(=O)O)C(=O)O
The experiment in a line: purified protein. It is filed as biochemical, Aminobacterium colombiense. Particulars: 500 mM pyruvate, 60 µM PLP, 50 mM K-phosphate, pH 8.0, 60 °C.

Substrate in series [2]: O=C(O)CCC(=O)C(=O)O
Kind of series: purified protein. It is filed as biochemical, Aminobacterium colombiense. Particulars: 500 mM D-alanine, 60 µM PLP, 50 mM CHES, pH 9.0, 60 °C.

B1: AmicoTA (Aminobacterium colombiense DSM 12261) (protein)
chain: MNLCYIDGKFLPLEEAKLPVTDLIIQRGVGVFETISTHSRRPLMLTPHLKRLEGSATASSIVMPATLDEMARIIREGIKKMGCETMVRPYITGGDSFGKDHLFSSSRYFVIFEEIRKPDPILYEKGVALHPINAERYLPSTKSINYMLSFTGQRDSKGAYEILYCPEGEIVEGSHSTFFLIKNGHLITAPTSRALSGTTRQIVLELARRGNIQVEERCPLLTELPEAEEAFITGTVKELLPVVRIGDQIIGNGVPGKLTKHLHQVYLSSIVEWLE
notes: N-terminal His6-TEV tag kept for kinetics, cut for crystals; E. coli Rosetta (DE3) pLysS
B1: in the series “purified protein [1]”, the Km is listed as 5.2 ± 0.6 mM, the turnover number (kcat) turned out to be 1.4 ± 0.06 s⁻¹ and the kcat/Km turned out to be 270 ± 40 M⁻¹ s⁻¹. Further, in “purified protein [2]”, the Km was 7.2 ± 0.8 mM, the kcat worked out at 9.9 ± 1.3 s⁻¹ and the kcat/Km is 1380 ± 330 M⁻¹ s⁻¹.
